{
  "source": "IntAct's records for PubMed 20360680",
  "parents": {"B1": {"name": "Protein bicaudal D homolog 2 (Mus musculus), Q921C5 (parent)", "chain": "MSAPSEEEEYARLVMEAQPEWLRAEVKRLSHELAETTREKIQAAEYGLAVLEEKHQLKLQFEELEVDYEAIRSEMEQLKEAFGQAHTNHKKVAADGESREESLIQESASKEQYYVRKVLELQTELKQLRNVLTNTQSENERLTSVAQELKEINQNVEIQRGRLRDDIKEYKFREARLLQDYSELEEENISLQKQVSVLRQNQVEFEGLKHEIKRLEEETEYLNSQLEDAIRLKEISERQLEEALETLKTEREQKNNLRKELSHYMSINDSFYTSHLQVSLDGLKFSDDTVTAEPNNDAEALVNGFEHSGLVKSSLDNKTSTPRKDGLAPPSPSLVSDLLSELHISEIQKLKQQLVQMEREKVGLLATLQDTQKQLEQARGTLSEQHEKVNRLTENLSALRRLQAGKERQTSLDNEKDRDSHEDGDYYEVDINGPEILACKYHVAVAEAGELREQLKALRSTHEAREAQHAEEKGRYEAEGQALTEKISLLEKASHQDRELLAHLEKELKKVSDVAGETQGSLNVAQDELVTFSEELANLYHHVCMCNNETPNRVMLDYYREGQGKAGRTSPEGRGRRSPVLLPKGLLATEVGRADGGTGDNSPSPSSSLPSPLSDPRREPMNIYNLIAIIRDQIKHLQAAVDRTTELSRQRIASQELGPAVDKDKEALMEEILKLKSLLSTKREQITTLRTVLKANKQTAEVALANLKSKYENEKAMVTETMMKLRNELKALKEDAATFSSLRAMFATRCDEYITQLDEMQRQLAAAEDEKKTLNSLLRMAIQQKLALTQRLELLELDHEQTRRGRSKAASKAKPASPSL"}, "B2": {"name": "Ras-related protein Rab-6A (Mus musculus), P35279 (parent)", "chain": "MSAGGDFGNPLRKFKLVFLGEQSVGKTSLITRFMYDSFDNTYQATIGIDFLSKTMYLEDRTVRLQLWDTAGQERFRSLIPSYIRDSTVAVVVYDITNVNSFQQTTKWIDDVRTERGSDVIIMLVGNKTDLADKRQVSIEEGERKAKELNVMFIETSAKAGYNVKQLFRRVAAALPGMESTQDRSREDMIDIKLEKPQEQPVNEGGCSC", "partner": "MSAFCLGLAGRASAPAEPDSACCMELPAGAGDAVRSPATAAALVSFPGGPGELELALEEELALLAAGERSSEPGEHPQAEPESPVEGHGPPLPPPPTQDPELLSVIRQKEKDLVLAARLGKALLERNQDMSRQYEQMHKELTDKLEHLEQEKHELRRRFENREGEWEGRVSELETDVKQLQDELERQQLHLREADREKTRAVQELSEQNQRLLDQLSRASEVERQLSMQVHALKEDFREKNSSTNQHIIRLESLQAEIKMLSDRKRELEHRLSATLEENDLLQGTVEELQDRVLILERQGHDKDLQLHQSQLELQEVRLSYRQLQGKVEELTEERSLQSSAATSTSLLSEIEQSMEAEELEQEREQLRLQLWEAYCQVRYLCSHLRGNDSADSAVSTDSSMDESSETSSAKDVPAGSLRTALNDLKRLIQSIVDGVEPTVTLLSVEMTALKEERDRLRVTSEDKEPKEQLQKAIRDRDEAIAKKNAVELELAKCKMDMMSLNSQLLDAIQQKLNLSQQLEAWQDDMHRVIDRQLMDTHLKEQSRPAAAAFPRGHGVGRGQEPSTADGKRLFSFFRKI"}, "B3": {"name": "BICD family-like cargo adapter 1 (Mus musculus), A0JNT9 (parent)", "chain": "B2 partner"}, "B4": {"name": "Ras-related protein Rab-6A (Mus musculus), P35279 (parent)", "chain": "B2 chain"}, "B5": {"name": "Ras-related protein Rab-6A (Homo sapiens), P20340 (parent)", "chain": "B2 chain with A3T, N202S", "partner": "B2 partner"}},
  "note": "Positions count from the first letter of the chain named.",
  "data": [
    {"variants_of": "B1", "settings": "with rab6a_mouse Rab6a", "values": [
      {"variant": "K785M", "effect of a mutation on the interaction": "disrupting interaction"}
    ]},
    {"variants_of": "B2", "settings": "with bicl1_mouse Bicdl1, A0JNT9", "values": [
      {"variant": "Q72R", "effect of a mutation on the interaction": "increasing interaction"}
    ]},
    {"variants_of": "B3", "settings": "with rab6a_mouse Rab6a", "values": [
      {"variant": "MSAFCLGLAGRASAPAEPDSACCMELPAGAGDAVRSPATAAALVSFPGGPGELELALEEELALLAAGERSSEPGEHPQAEPESPVEGHGPPLPPPPTQDPELLSVIRQKEKDLVLAARLGKALLERNQDMSRQYEQMHKELTDKLEHLEQEKHELRRRFENREGEWEGRVSELETDVKQLQDELERQQLHLREADREKTRAVQELSEQNQRLLDQLSRASEVERQLSMQVHALKEDFREKNSSTNQHIIRLESLQAEIKMLSDRKRELEHRLSATLEENDLLQGTVEELQDRVLILERQGHDKDLQLHQSQLELQEVRLSYRQLQGKVEELTEERSLQSSAATSTSLLSEIEQSMEAEELEQEREQLRLQLWEAYCQVRYLCSHLRGNDSADSAVSTDSSMDESSETSSAKDVPAGSLRTALNDLKRLIQSIVDGVEPTVTLLSVEMTALKEERDRLRVTSEDKEPKEQLQKAIRDRDEAIAKKNAVELELAKCKMDMMSLNSQLLDAIQQMLNLSQQLEAWQDDMHRVIDRQLMDTHLKEQSRPAAAAFPRGHGVGRGQEPSTADGKRLFSFFRKI", "note": "[K512M]", "effect of a mutation on the interaction": "disrupting interaction"}
    ]},
    {"variants_of": "B3", "settings": "with rab6b_mouse Rab6b", "values": [
      {"variant": "MSAFCLGLAGRASAPAEPDSACCMELPAGAGDAVRSPATAAALVSFPGGPGELELALEEELALLAAGERSSEPGEHPQAEPESPVEGHGPPLPPPPTQDPELLSVIRQKEKDLVLAARLGKALLERNQDMSRQYEQMHKELTDKLEHLEQEKHELRRRFENREGEWEGRVSELETDVKQLQDELERQQLHLREADREKTRAVQELSEQNQRLLDQLSRASEVERQLSMQVHALKEDFREKNSSTNQHIIRLESLQAEIKMLSDRKRELEHRLSATLEENDLLQGTVEELQDRVLILERQGHDKDLQLHQSQLELQEVRLSYRQLQGKVEELTEERSLQSSAATSTSLLSEIEQSMEAEELEQEREQLRLQLWEAYCQVRYLCSHLRGNDSADSAVSTDSSMDESSETSSAKDVPAGSLRTALNDLKRLIQSIVDGVEPTVTLLSVEMTALKEERDRLRVTSEDKEPKEQLQKAIRDRDEAIAKKNAVELELAKCKMDMMSLNSQLLDAIQQMLNLSQQLEAWQDDMHRVIDRQLMDTHLKEQSRPAAAAFPRGHGVGRGQEPSTADGKRLFSFFRKI", "note": "[K512M]", "effect of a mutation on the interaction": "disrupting interaction"}
    ]},
    {"variants_of": "B4", "settings": "with bicd2_mouse Bicd2, Q921C5", "values": [
      {"variant": "T27N", "effect of a mutation on the interaction": "disrupting interaction"}
    ]},
    {"variants_of": "B5", "settings": "with bicl1_mouse Bicdl1, A0JNT9", "values": [
      {"variant": "T27N", "effect of a mutation on the interaction": "disrupting interaction"}
    ]}
  ]
}
